B1: I 11B7 (antibody, V domains shown)
VH: EVQLQESGPGLVKPSQSLSLTCSVTGYSITSNYWGWIRKFPGDKMEWMGYITYSGSTSYNPSLKSRISITRDTSKNQFFLQLNSVTSEDTATYYCAITTFYYWGQGVMVTVSS
VL: DIQMTQAPSSLPASLGDRVTITCRASQDIGNYLRWFQQKPGKSPRLMISGATNLAAGVPSRFSGSRSGSDYSLTISSLESEDMADYYCLQSKESPWTFGGGTKLELK
notes: rat hybridoma antibody, antagonistic
B2: I 10D12 (antibody, V domains shown)
VH: EVQLQESGPGLVKPSQSLSLTCSVTGYSITSNYWGWIRKFPGNKMEWMGYITNSGGTAYNPSLKSRISITRDTSKNQFFLQLNSVIPEDSATYFCSRTPWDWGQGVMVTVSS
VL: DIQMTQAPSSLPASLGDRVTIACRASQDIGNYLRWFQQKPGKSPRLMISGATNLAAGVPSRFSGSRSGSDYSRTISSLESEDMADYYCLQSKESPWTFGGGTKLELK
notes: rat hybridoma antibody, antagonistic; subclass G1
B3: III 11D5 (antibody, rat IgG2a, V domains shown)
VH: EVQLQESGPGLVKPSQSLSLTCSVTGYSITSNYWGWIRKFPGNKMEWIGHITNSGNTTYNPSLKSRISISRDTSRNQFFLQLNSVTTEDTATYYCAKGAFDYWGQGVMVTVSS
VL: DIQMTQSPSSMSTSLGDRVTITCRASQDIGNYLSWFQQKVGKSPRRMIYGAIKLAVGVPSRFSGSRSGSDYSLTISSLESEDMAIYYCLQYIQFPLTFGSGTKLELK
notes: as for B1

Columns and labels:
[1] = target: T1, human receptor tyrosine kinase AXL transcript variant 1 (human, UniProt P30530 26-894); test: FACS Scatchard (apparent KD) on human AXL overexpressing NIH3T3 cells
T1 construct: Overexpressed on RatI-AXL cl.2 and NIH3T3-AXL cl.7 fibroblasts (pLXSN-hAXL); endogenous on human cancer cell lines and HUVEC in the functional assays; also called hAXL; human AXL
T1 sequence: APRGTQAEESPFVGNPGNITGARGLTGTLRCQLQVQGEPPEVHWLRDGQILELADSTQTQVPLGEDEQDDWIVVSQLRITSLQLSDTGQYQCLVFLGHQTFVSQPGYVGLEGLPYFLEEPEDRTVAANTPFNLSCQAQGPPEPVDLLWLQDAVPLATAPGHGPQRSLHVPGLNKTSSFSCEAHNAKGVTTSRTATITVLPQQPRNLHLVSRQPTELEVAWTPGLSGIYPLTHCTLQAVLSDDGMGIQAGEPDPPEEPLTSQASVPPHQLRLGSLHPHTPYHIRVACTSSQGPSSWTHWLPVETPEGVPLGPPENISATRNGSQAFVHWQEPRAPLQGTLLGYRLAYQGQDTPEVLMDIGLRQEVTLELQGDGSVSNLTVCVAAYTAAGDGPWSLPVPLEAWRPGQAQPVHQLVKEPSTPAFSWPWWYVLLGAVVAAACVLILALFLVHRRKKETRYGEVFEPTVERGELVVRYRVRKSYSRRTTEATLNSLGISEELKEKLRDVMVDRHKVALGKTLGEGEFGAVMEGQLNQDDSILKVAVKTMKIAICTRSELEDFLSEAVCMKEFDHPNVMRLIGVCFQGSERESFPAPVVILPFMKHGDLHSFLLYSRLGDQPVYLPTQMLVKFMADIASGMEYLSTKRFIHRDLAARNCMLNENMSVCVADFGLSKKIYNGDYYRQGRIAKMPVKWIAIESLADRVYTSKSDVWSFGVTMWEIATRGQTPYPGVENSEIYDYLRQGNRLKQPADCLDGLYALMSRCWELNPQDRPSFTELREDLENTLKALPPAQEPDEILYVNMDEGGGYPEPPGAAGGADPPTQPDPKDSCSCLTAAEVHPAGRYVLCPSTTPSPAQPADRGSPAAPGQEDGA
Procedure: Human AXL overexpression NIH3T3 cells were harvested by incubation with 10 mM EDTA in PBS and resuspended at 6 million cells per ml in FACS buffer (PBS pH 7.4, 3% FCS, 0.1% NaN₃). […] Antibody binding was allowed to proceed for 2 hours on ice. Then, cells were washed twice with 250 μl FACS buffer per well, and resuspended in 200 μl of secondary antibody (anti-rat-PE; Jackson) diluted 1:50 in FACS buffer. After 45 minutes of incubation, cells were again washed twice in FACS buffer and resuspended in […] PBS for FACS analysis. Analysis was carried out on a Beckman-Coulter FACS FC500. To determine the apparent affinity constant KDapp, mean fluorescence values were plotted against the ratio of mean fluorescence and the corresponding antibody concentration ([M]).

[2] = target: T1, human receptor tyrosine kinase AXL …; test: cell-based or functional assay
human Mer = target: T2, human Mer (human, UniProt Q12866 21-999); test: flow cytometry, transiently transfected HEK293T cells
T2 construct: whole, on cells; Transiently expressed on HEK293T cells; also called hMer
T2 sequence (looked up): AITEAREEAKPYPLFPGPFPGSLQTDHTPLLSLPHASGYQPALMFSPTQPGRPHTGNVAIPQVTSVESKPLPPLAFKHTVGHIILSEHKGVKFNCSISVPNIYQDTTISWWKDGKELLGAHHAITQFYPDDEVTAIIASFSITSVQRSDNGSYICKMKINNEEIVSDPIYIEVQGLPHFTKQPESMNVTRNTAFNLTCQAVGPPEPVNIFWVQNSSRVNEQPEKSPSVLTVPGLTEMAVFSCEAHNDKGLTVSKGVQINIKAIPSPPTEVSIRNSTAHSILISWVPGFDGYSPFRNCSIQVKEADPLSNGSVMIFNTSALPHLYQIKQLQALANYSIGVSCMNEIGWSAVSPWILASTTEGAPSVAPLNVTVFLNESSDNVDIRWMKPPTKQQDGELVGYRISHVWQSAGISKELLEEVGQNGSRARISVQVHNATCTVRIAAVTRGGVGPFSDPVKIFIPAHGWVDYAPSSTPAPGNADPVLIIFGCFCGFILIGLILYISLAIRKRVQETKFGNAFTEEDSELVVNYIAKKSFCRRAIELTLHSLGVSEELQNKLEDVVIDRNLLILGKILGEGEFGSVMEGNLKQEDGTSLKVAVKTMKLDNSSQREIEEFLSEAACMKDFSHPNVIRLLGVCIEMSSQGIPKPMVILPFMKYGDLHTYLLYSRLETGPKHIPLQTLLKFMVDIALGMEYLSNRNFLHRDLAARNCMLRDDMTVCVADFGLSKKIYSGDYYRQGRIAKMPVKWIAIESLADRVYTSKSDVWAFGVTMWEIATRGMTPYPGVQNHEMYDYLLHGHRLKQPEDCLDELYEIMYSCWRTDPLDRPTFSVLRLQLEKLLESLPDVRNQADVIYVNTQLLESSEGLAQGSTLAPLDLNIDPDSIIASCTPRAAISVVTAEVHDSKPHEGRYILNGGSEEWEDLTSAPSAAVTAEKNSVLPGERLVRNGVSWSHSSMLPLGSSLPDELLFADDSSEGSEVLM
Procedure: FIG. 3. Flow cytometry analysis of cross-reactivity of rat-anti AXL antibodies with mouse and cynomolgus monkey AXL as well as human Mer and Sky. HEK293T fibroblasts were transiently transfected with pcDNA3, pcDNA3-hAXL, pcDNA3 mAXL, pcDNA3-cyAXL, pcDNA3-hMer, or pcDNA3-hSky. […] See text for details.
For FACS analysis, 2×10⁵ cells were harvested with 10 mM EDTA in PBS, washed once with FACS buffer (PBS, 3% FCS, 0.4% azide) and seeded on a 96 well round bottom plate. […] After incubation on ice for 1 h, cells were washed twice with chilled FACS buffer and resuspended with PE-conjugated donkey anti-rat (Jackson) secondary antibody diluted 1:50 in FACS buffer (100 μl/well) or PE-conjugated donkey anti-mouse secondary antibody for control. Protected from light, cells were incubated on ice for 30 min, washed twice with FACS buffer and analyzed using an Epics XL-MCL flow cytometer (Beckman Coulter).

| Binder | Kd [1] | IC50 of VEGF-A-stimulated HUVEC spheroid sprouting [2] | binding result (human Mer) |
| --- | --- | --- | --- |
| B1 | 0.38 nM | 98 nM | no binding (tested: 10 µg/ml) |
| B2 |  |  | no binding (tested: 10 µg/ml) |
| B3 | 0.81 nM | 700 nM | no binding (tested: 10 µg/ml) |

Reference: patent publication US20100330095A1 (U3 PHARMA, published 2010)
